According to PMC314469, “Protein Interaction Networks by Proteome Peptide Scanning” (PLoS Biology, 2004):

T1: Yhr016c SH3 (YSC84_YEAST), P32793
T1 chain: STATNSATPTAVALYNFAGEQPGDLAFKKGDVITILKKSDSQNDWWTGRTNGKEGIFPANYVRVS

T2: Yfr024 SH3 (LSB3_YEAST), P43603
T2 chain: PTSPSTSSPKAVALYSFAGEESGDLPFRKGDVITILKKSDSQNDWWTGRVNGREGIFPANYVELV

T3: Boi1 SH3 (BOI1_YEAST), P38041
T3 chain: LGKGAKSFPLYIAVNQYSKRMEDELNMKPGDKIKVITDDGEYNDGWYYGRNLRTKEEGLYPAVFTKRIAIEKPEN

T4: Boi2 SH3 (BOI2_YEAST), P39969
T4 chain: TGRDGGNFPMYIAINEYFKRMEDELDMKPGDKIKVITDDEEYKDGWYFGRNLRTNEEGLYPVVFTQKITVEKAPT

T5: Rvs167 SH3 (RV167_YEAST), P39743
T5 chain: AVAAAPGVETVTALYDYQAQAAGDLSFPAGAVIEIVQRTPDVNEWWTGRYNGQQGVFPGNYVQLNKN


Biological target: T1, Yhr016c SH3 (YSC84_YEAST), P32793
Experiment: SPOT array
A normalised SPOT signal, Boehringer light units (BLU); mean over the file's lines of this peptide of 302 was found for LIDPSTPDKAAKKD [YGR083C 353-366] in this work.
A normalised SPOT signal, Boehringer light units (BLU); mean over the file's lines of this peptide of 184 was found for LKYPYFPTKMSYLQ [YNL059C 229-242] in this work.
A normalised SPOT signal, Boehringer light units (BLU); mean over the file's lines of this peptide of 286 was found for LIQPTAPIRDPTRF [YIR029W 48-61] in this work.
A normalised SPOT signal, Boehringer light units (BLU); mean over the file's lines of this peptide of 96.5 was found for LEQPAEPSKLAKKL [YMR108W 66-79] in this work.
A normalised SPOT signal, Boehringer light units (BLU); mean over the file's lines of this peptide of 323 was found for LIPPGFPTKNYPPG [YCL010C 185-198] in this work.
A normalised SPOT signal, Boehringer light units (BLU); mean over the file's lines of this peptide of 59600 was found for LNSPDLPERTKLRN [YDL225W 445-458] in this work.
A normalised SPOT signal, Boehringer light units (BLU); mean over the file's lines of this peptide of 250 was found for LGAPFSPRRKDKLV [YJL172W 363-376] in this work.
A normalised SPOT signal, Boehringer light units (BLU); mean over the file's lines of this peptide of 142 was found for LHYPYGPARNPSYI [YJR126C 313-326] in this work.
A normalised SPOT signal, Boehringer light units (BLU); mean over the file's lines of this peptide of 150 was found for LHGPFKPVKSSNGE [YER134C 25-38] in this work.
A normalised SPOT signal, Boehringer light units (BLU); mean over the file's lines of this peptide of 174 was found for LFGPSFPNKTTVEI [YNL197C 178-191] in this work.
A normalised SPOT signal, Boehringer light units (BLU); mean over the file's lines of this peptide of 227 was found for LHDPLVPIKSYGLT [YMR185W 739-752] in this work.

Biological target: T2, Yfr024 SH3 (LSB3_YEAST), P43603
Experiment: SPOT array
A normalised SPOT signal, Boehringer light units (BLU); mean over the file's lines of this peptide of 0 was found for LIDPSTPDKAAKKD [YGR083C 353-366] in this work.
A normalised SPOT signal, Boehringer light units (BLU); mean over the file's lines of this peptide of 296 was found for LKYPYFPTKMSYLQ [YNL059C 229-242] in this work.
A normalised SPOT signal, Boehringer light units (BLU); mean over the file's lines of this peptide of 541 was found for LIQPTAPIRDPTRF [YIR029W 48-61] in this work.
A normalised SPOT signal, Boehringer light units (BLU); mean over the file's lines of this peptide of 19.3 was found for LEQPAEPSKLAKKL [YMR108W 66-79] in this work.
A normalised SPOT signal, Boehringer light units (BLU); mean over the file's lines of this peptide of 85.1 was found for LIPPGFPTKNYPPG [YCL010C 185-198] in this work.
A normalised SPOT signal, Boehringer light units (BLU); mean over the file's lines of this peptide of 35600 was found for LNSPDLPERTKLRN [YDL225W 445-458] in this work.
A normalised SPOT signal, Boehringer light units (BLU); mean over the file's lines of this peptide of 1510 was found for LGAPFSPRRKDKLV [YJL172W 363-376] in this work.
A normalised SPOT signal, Boehringer light units (BLU); mean over the file's lines of this peptide of 277 was found for LHYPYGPARNPSYI [YJR126C 313-326] in this work.
A normalised SPOT signal, Boehringer light units (BLU); mean over the file's lines of this peptide of 288 was found for LHGPFKPVKSSNGE [YER134C 25-38] in this work.
A normalised SPOT signal, Boehringer light units (BLU); mean over the file's lines of this peptide of 88.8 was found for LFGPSFPNKTTVEI [YNL197C 178-191] in this work.
A normalised SPOT signal, Boehringer light units (BLU); mean over the file's lines of this peptide of 126 was found for LHDPLVPIKSYGLT [YMR185W 739-752] in this work.

Biological target: T3, Boi1 SH3 (BOI1_YEAST), P38041
Experiment: SPOT array
A normalised SPOT signal, Boehringer light units (BLU); mean over the file's lines of this peptide of 24.8 was found for LIDPSTPDKAAKKD [YGR083C 353-366] in this work.
A normalised SPOT signal, Boehringer light units (BLU); mean over the file's lines of this peptide of 91.9 was found for LKYPYFPTKMSYLQ [YNL059C 229-242] in this work.
A normalised SPOT signal, Boehringer light units (BLU); mean over the file's lines of this peptide of 30300 was found for LIQPTAPIRDPTRF [YIR029W 48-61] in this work.
A normalised SPOT signal, Boehringer light units (BLU); mean over the file's lines of this peptide of 86.5 was found for LEQPAEPSKLAKKL [YMR108W 66-79] in this work.
A normalised SPOT signal, Boehringer light units (BLU); mean over the file's lines of this peptide of 40.1 was found for LIPPGFPTKNYPPG [YCL010C 185-198] in this work.
A normalised SPOT signal, Boehringer light units (BLU); mean over the file's lines of this peptide of 6110 was found for LNSPDLPERTKLRN [YDL225W 445-458] in this work.
A normalised SPOT signal, Boehringer light units (BLU); mean over the file's lines of this peptide of 140 was found for LGAPFSPRRKDKLV [YJL172W 363-376] in this work.
A normalised SPOT signal, Boehringer light units (BLU); mean over the file's lines of this peptide of 146 was found for LHYPYGPARNPSYI [YJR126C 313-326] in this work.
A normalised SPOT signal, Boehringer light units (BLU); mean over the file's lines of this peptide of 103 was found for LHGPFKPVKSSNGE [YER134C 25-38] in this work.
A normalised SPOT signal, Boehringer light units (BLU); mean over the file's lines of this peptide of 91.9 was found for LFGPSFPNKTTVEI [YNL197C 178-191] in this work.
A normalised SPOT signal, Boehringer light units (BLU); mean over the file's lines of this peptide of 0 was found for LHDPLVPIKSYGLT [YMR185W 739-752] in this work.

Biological target: T4, Boi2 SH3 (BOI2_YEAST), P39969
Experiment: SPOT array
A normalised SPOT signal, Boehringer light units (BLU); mean over the file's lines of this peptide of 19.8 was found for LIDPSTPDKAAKKD [YGR083C 353-366] in this work.
A normalised SPOT signal, Boehringer light units (BLU); mean over the file's lines of this peptide of 99 was found for LKYPYFPTKMSYLQ [YNL059C 229-242] in this work.
A normalised SPOT signal, Boehringer light units (BLU); mean over the file's lines of this peptide of 68.8 was found for LIQPTAPIRDPTRF [YIR029W 48-61] in this work.
A normalised SPOT signal, Boehringer light units (BLU); mean over the file's lines of this peptide of 37.3 was found for LEQPAEPSKLAKKL [YMR108W 66-79] in this work.
A normalised SPOT signal, Boehringer light units (BLU); mean over the file's lines of this peptide of 40.7 was found for LIPPGFPTKNYPPG [YCL010C 185-198] in this work.
A normalised SPOT signal, Boehringer light units (BLU); mean over the file's lines of this peptide of 31.1 was found for LNSPDLPERTKLRN [YDL225W 445-458] in this work.
A normalised SPOT signal, Boehringer light units (BLU); mean over the file's lines of this peptide of 25.3 was found for LGAPFSPRRKDKLV [YJL172W 363-376] in this work.
A normalised SPOT signal, Boehringer light units (BLU); mean over the file's lines of this peptide of 31.8 was found for LHYPYGPARNPSYI [YJR126C 313-326] in this work.
A normalised SPOT signal, Boehringer light units (BLU); mean over the file's lines of this peptide of 77.4 was found for LHGPFKPVKSSNGE [YER134C 25-38] in this work.
A normalised SPOT signal, Boehringer light units (BLU); mean over the file's lines of this peptide of 30.3 was found for LFGPSFPNKTTVEI [YNL197C 178-191] in this work.
A normalised SPOT signal, Boehringer light units (BLU); mean over the file's lines of this peptide of 13.6 was found for LHDPLVPIKSYGLT [YMR185W 739-752] in this work.

Biological target: T5, Rvs167 SH3 (RV167_YEAST), P39743
Experiment: SPOT array
A normalised SPOT signal, Boehringer light units (BLU); mean over the file's lines of this peptide of 28.2 was found for LIDPSTPDKAAKKD [YGR083C 353-366] in this work.
A normalised SPOT signal, Boehringer light units (BLU); mean over the file's lines of this peptide of 39.3 was found for LKYPYFPTKMSYLQ [YNL059C 229-242] in this work.
A normalised SPOT signal, Boehringer light units (BLU); mean over the file's lines of this peptide of 75.5 was found for LIQPTAPIRDPTRF [YIR029W 48-61] in this work.
A normalised SPOT signal, Boehringer light units (BLU); mean over the file's lines of this peptide of 8.3 was found for LEQPAEPSKLAKKL [YMR108W 66-79] in this work.
A normalised SPOT signal, Boehringer light units (BLU); mean over the file's lines of this peptide of 0 was found for LIPPGFPTKNYPPG [YCL010C 185-198] in this work.
A normalised SPOT signal, Boehringer light units (BLU); mean over the file's lines of this peptide of 23300 was found for LNSPDLPERTKLRN [YDL225W 445-458] in this work.
A normalised SPOT signal, Boehringer light units (BLU); mean over the file's lines of this peptide of 59.5 was found for LGAPFSPRRKDKLV [YJL172W 363-376] in this work.
A normalised SPOT signal, Boehringer light units (BLU); mean over the file's lines of this peptide of 56.4 was found for LHYPYGPARNPSYI [YJR126C 313-326] in this work.
A normalised SPOT signal, Boehringer light units (BLU); mean over the file's lines of this peptide of 107 was found for LHGPFKPVKSSNGE [YER134C 25-38] in this work.
A normalised SPOT signal, Boehringer light units (BLU); mean over the file's lines of this peptide of 19.9 was found for LFGPSFPNKTTVEI [YNL197C 178-191] in this work.
A normalised SPOT signal, Boehringer light units (BLU); mean over the file's lines of this peptide of 47.9 was found for LHDPLVPIKSYGLT [YMR185W 739-752] in this work.
